The target of this series is delta-plasminogen.
delta-plasminogen, sequence (chain, as listed by the source mutant): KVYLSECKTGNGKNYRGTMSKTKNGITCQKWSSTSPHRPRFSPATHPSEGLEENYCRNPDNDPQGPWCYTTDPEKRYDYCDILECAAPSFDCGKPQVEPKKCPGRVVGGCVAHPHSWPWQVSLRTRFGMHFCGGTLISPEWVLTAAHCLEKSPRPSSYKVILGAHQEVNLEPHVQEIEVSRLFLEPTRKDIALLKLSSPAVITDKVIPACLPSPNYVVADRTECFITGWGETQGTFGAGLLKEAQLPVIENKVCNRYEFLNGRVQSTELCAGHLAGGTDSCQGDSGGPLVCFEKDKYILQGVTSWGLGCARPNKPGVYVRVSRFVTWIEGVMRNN

B1: tissue Plasminogen Activator (protein)
chain: SYQVICRDEKTQMIYQQHQSWLRPVLRSNRVEYCWCNSGRAQCHSVPVKSCSEPRCFNGGTCQQALYFSDFVCQCPEGFAGKCCEIDTRATCYEDQGISYRGTWSTAESGAECTNWNSSALAQKPYSGRRPDAIRLGLGNHNYCRNPDRDSKPWCYVFKAGKYSSEFCSTPACSEGNSDCYFGNGSAYRGTHSLTESGASCLPWNSMILIGKVYTAQNPSAQALGLGKHNYCRNPDGDAKPWCHVLKNRRLTWEYCDVPSCSTCGLRQYSQPQFRIKGGLFADIASHPWQAAIFAKHRRSPGERFLCGGILISSCWILSAAHCFQERFPPHHLTVILGRTYRVVPGEEEQKFEVEKYIVHKEFDDDTYDNDIALLQLKSDSSRCAQESSVVRTVCLPPADLQLPDWTECELSGYGKHEALSPFYSERLKEAHVRLYPSSRCTSQHLLNRTVTDNMLCAGDTRSGGPQANLHDACQGDSGGPLVCLNDGRMTLVGIISWGLGCGQKDVPGVYTKVTNYLDWIRDNMRP
As to B1, the “conversion of one-chain delta-plasminogen into two-chain delta-plasmin (reduced SDS-PAGE)” value is on record as “delta-plasminogen indeed can be activated by all three plasminogen activators”.

The values are drawn from patent US20100047228.
